Experimental findings from patent KR20140095558A (dated 2014) are described below.

The chains are these.
B1: SC06-077 (scFv)
scFv: QVQLVQSGAEVKKPGSSVKVSCKASGGTFSSYAISWVRQAPGQGLEWMGGIIPIFGTANYAQKFQGRVTITADESTSTAYMELSSLRSEDTAVYYCAREGGVGPAFDIWGQGTMVTVSSGTGGSGGTGSGTGGSTDIQMTQSPDSLAVSLGERATINCKSSQSVLHNSNNKNYLAWYQQKPGQPPKLLIYWASTRESGVPDRFSGSGSGTDFTLTISSLQAEDVAVYYCQQYYGSPYTFGQGTKLEIK
B2: SC05-159 (scFv)
scFv: QVQLVQSGAEVKKPGATVKISCKVSGYTFTDYYMHWVQQAPGKGLEWMGLVDPEDGETIYAEKFQGRVTITADTSTDTAYMELSSLRSDDTAVYYCARAEVMTTINNWYFDLWGRGTLVTVSSGTGGSGGTGSGTGGSTSYVLTQPPSASGTPGQRVTISCSGSSSNIGSNNVSWYQQLPGTAPKLLIYSNNQRPSGVPDRFSGSKSGTSASLAISGLQSEDEADYYCAAWDDSLNGWVFGGGTKLTVL
B3: SC05-157 (scFv)
scFv: EVQLVESGAEVKKPGESLKISCKGSGYSFTNYWIGWVRQMPGKGLEWMGIVYPGDSDTRYSPSFQGQVTISADKSISTAYLQWSSLKASDTAVYYCARRMAVAGSDAFDIWGQGTMVTVSSGTGGSGGTGSGTGGSTQAVLTQPSSASGTPGQTVTISCSGSTSNIGSHNVNWYQHLPGTAPKLLIYINNKRPSGVPDRFSGSKSGSSASLAISGLQSEDEADYYCAAWDDSLRRPVFGGGTQLTVL
B4: SC06-198 (scFv)
scFv: QLQLQESGPGLVKPSETLSLTCAVSGYSITSGYYWGWVRQPPGKGLEWIGSIYHTGSTYYNPSLKSRVTISVDTSKNQFSLKLNSLTAADTAVYFCASQSPAFDFWGQGTMVTVSSGTGGSGGTGSGTGGSTQSVLTQPPSVSGAPGQRVTISCTGSSSNIGTGYDVHWYQQLPGTAPKLLIYGNNNRPSGVPDRFSGSKSGTSASLAITGLQAEDEADYYCATWDDSLNGWVFGGGTKLTVP
B5: SC06-191 (scFv)
scFv: EVQLVESGGGVVQPGRSLRLSCVASEFTFSNYGMHWVRQAPGKGLEWVAVIWYDGSNEDYADSVKGRFTISRDNSKNTVYLHMNSLRAEDTAVYFCTRGQYSSTWFLDYWGQGTLVTVSSGTGGSGGTGSGTGGSTDIQLTQSPSTLSASVGDRVTITCRASQSISSWLAWYQQKPGKAPKLLIYKASSLETGVPSRFSGSGSGTDFTLTISSLQPEDFATYYCQQANSFPLTFGGGTKVDIK
B6: SC06-071 (scFv)
scFv: EVQLVESGGGVVQPGRSLRLSCAASGFTFSSYGMHWVRQAPGKGLEWVAMIWSDGSNKYYADSVKGRFTISRDNSKNTLYLQMNSLRVEDTAVYYCASNYGSGSYWGGFDYWGQGTLVTVSSGTGGSGGTGSGTGGSTQSALTQPASVSGSPGQSITISCTGTSSDVGGYNLVSWYQQHPGKAPKLMIYEGSKRPSGVSNRFFGSKSGDTASLTISGLQAEDEADYYCSSYTTSSTHVFGTGTKVTVL
B7: SC06-246 (scFv)
scFv: EVQLVESGGGLIQPGGSLRLSCAASGFTVSSDFMTWVRQAPGRGLEWVSLIYSGGKTNYADSVKGRFTISRDNSRNTLYLQMNSLRAEDTAVYYCARSVCSTISCSKLDDWGQGTLVTVSSGTGGSGGTGSGTGGSTQAVLTQPSSVSVAPGQTARITCGGNNIGRKSVHWYQQKPGLAPVLVVNDNSDRPSGIPARFSGSNSGNTATLTISRVEAGDEADYYCHVWGSSRDHYVFGTGTKVTVL
B8: SC06-241 (scFv)
scFv: EVQLVESGGGLVQPGRSLRLSCAASGFTFRSYAMYWVRQAPGKGLEWLALISHDASKMFYADSVKGRFTISRDNSKNTLSLQMNSLTIEDTAVYYCVRERTGYYGAYWGQGTLVTVSSGTGGSGGTGSGTGGSTDIQMTQSPSSLSASVGDRVTLTCRASQGIGTWLAWYQQKPGKAPKLLIYSASSLQSGVPSRFSGSGSGTDFTLSISNLQPEDFATYYCQQANSFPITFGQGTRLEIK
B9: SC06-242 (scFv)
scFv: EVQLVESGPGLVKPSETLSLTCTVSGGSISSYYWSWIRQPPGKGLEWIGYIYYTGTTNYNPSLNSRVTISADTSKNQFSLKLSSVTAADTAVYYCARGGQTAGVWGKGTTVTVSSGTGGSGGTGSGTGGSTQSVLTQPPSVSVAPGQTARITCGGYNIGRKSVHWYQQKPGLAPVLVVYDNSDRPSGIPARFSGSNSGNTATLTISGTQAMDEADYYCQAWDRGTAVFGTGTKVTVL
B10: SC06-079 (scFv)
scFv: EVQLVESGGGLVQPGGSLRLSCAASGFTFSSYAMSWVRQAPGKGLEWVSAISGTGGSAYYADSVKGRFTISRDNSKNTVYLQMNSLRAEDTAVYYCAKGHSSGTNWGQGTLVTVSSGTGGSGGTGSGTGGSTSYVLTQPPSASGTPGQRVTISCSGSSSNIGSNFVYWYQQLPGTAPKLLIYRNNQRPSGVPDRFSGSKSGTSASLAISGLRSEDEADYYCAAWDDSLSGVLFGGGTQLTVL
B11: SC06-089 (scFv)
scFv: EVQLVETGGGLVQPGGSLRLSCAASGFTFSSYSMNWVRQAPGKGLEWVSFISSSSSTIYYADSVKGRFTIARDNAKNSLYLQMNSLRDEDTAVYYCARPVGTGISLFHAFDIWGQGTMVTVSSGTGGSGGTGSGTGGSTQSVLTQPPSVSVAPGQTARITCGGNNIGSKYVHWYQQKPGQAPVLVVYDDSDRPSGIPERFSGSNSGNTATLTISRVEAGDEADFYCQVWDGSSDPVVFGGGTKLTVL
B12: SC06-087 (scFv)
scFv: EVQLVESGGGLVKPGGSLRLSCAASGFTFSSNSMNWVRQAPGKGLEWVSFISSSSTYIYYADSVKGRFTISRDNAKNSLYLQMNSLRAEDTAVYYCARESAAGISYDAFDIWGQGTMVTVSSGTGGSGGTGSGTGGSTQSALTQPASVSGSPGQSITISCTGTSSDVGGYKYVSWYQQHPGKAPKLMIYEVSNRPSGVSNRFSGSKSGSTASLTISGLQAEDEADYYCSSYTSSSTLGVFGTGTKVTVL
B13: SC06-078 (scFv)
scFv: EVQLVESGAEVKKPGSSVKVSCKASGGTFSSYAISWVRQAPGQGLEWMGGIIPIFGTANYAQKFQGKVTITADESTSTAYMELSSLRSEDTAVYYCARLSPRYYGMDVWGQGTTVTVSSGTGGSGGTGSGTGGSTQSALTQPRSVSGSPGQSVTISCTGTSSDVGGYNYVSWYQQHPGKAPKLMIYGGSERPSGVSNRFSGSKSGNTASLTISGVQAEDEADYYCSSYTSSGTLLFGGGTQLTVL
B14: SC06-092 (scFv)
scFv: EVQLVESGGGLVQPGRSLRLSCTGSGFTFGDYAMSWFRQAPGKGLEWVGFIRNKAYGGTAEYAASVKDRFIISRDDSKSIAYLQMNSLKTEDTAVYYCVRREYDTGWLDYWGQGTLVTVSSGTGGSGGTGSGTGGSTQSALTQPPSASGSPGQSVTISCTGTSSDVGGYNYVSWYQRHPGKAPKLMIYDVTDRPSGVSNRFSGSKSGNTASLTISGLQAEDEADYYCSSYTSSSTSAVFGGGTKLTVL

T1 sequence (P02769 25-607 limits assumed): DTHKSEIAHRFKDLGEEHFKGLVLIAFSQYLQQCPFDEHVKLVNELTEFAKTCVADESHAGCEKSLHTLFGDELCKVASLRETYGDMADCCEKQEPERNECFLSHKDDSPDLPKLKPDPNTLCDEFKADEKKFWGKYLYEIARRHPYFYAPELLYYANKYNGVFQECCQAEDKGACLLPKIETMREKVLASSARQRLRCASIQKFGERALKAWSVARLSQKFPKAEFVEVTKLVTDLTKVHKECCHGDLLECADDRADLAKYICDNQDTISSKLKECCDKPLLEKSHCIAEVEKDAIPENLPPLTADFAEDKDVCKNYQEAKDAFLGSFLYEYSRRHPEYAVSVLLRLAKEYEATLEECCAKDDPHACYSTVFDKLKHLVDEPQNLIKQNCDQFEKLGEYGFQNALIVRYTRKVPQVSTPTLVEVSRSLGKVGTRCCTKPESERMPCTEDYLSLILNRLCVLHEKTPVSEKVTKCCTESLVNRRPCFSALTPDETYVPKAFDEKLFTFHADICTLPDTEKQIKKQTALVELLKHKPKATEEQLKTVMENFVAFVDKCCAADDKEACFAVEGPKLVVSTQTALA

The assay concerns the target T1, BSA (bovine serum albumin) (bovine (송아지 혈청 알부민), UniProt P02769 25-607).
T1 construct: Negative control antigen of the phage ELISA; also called 송아지 혈청 알부민
The experiment in a line: phage ELISA, 1% BSA coated, anti-M13 peroxidase, OD 492 nm.
Consider B1, for which the binding result was “no binding”. For the molecule B2, the binding result is listed as “no binding”. Take B3: the binding result is listed as “no binding”. Regarding B4, the binding result is reported as “no binding”.

In the case of B5, the binding result was “no binding”. On to B6, for which the binding result is reported as “no binding”. As for B7, the entry is “no binding”; as for B8, “no binding”; as for B9, “no binding”.

With B10, the binding result is recorded as “no binding”.

Consider B11, for which the binding result is “no binding”. Take B12: the binding result is reported as “no binding”. Consider B13, for which the binding result is reported as “no binding”.

For B14, the binding result is on record as “no binding”.
